The values below come from publication PMC4109716.

Assay in all cases: smFRET
For data set [1], the target named is T1, POT1 (Homo sapiens, UniProt Q9NUX5 1-634).
T1 sequence: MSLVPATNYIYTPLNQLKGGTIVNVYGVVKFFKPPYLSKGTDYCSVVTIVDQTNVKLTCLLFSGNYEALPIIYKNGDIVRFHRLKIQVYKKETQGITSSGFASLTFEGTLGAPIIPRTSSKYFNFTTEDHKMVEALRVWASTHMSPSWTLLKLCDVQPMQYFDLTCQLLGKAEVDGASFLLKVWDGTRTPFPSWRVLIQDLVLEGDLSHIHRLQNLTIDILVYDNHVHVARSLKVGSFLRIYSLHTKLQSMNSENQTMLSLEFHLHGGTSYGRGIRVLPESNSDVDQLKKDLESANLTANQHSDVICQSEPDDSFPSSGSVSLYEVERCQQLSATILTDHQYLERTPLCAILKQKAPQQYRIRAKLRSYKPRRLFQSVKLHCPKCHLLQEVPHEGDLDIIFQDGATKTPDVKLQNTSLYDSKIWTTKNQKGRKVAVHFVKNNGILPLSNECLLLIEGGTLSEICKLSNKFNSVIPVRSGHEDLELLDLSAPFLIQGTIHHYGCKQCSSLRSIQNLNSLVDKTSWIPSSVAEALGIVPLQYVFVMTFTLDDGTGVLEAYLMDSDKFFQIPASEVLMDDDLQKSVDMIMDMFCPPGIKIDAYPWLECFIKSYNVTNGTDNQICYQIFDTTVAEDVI

Data set [2] addresses T1, POT1. This is another data set of the same source.
For data set [3], the target named is T1, POT1. The source holds these as a separate data set.
Data set [4] addresses T2, POT1;TPP1N-Alexa 647 (Homo sapiens;Homo sapiens?, UniProt Q9NUX5;Q96AP0 1-634;3-248, |).
Data set [5] deals with T1, POT1. This is another data set of the same source.
Data set [6] addresses T3, POT1;TPP1N (Homo sapiens;Homo sapiens?, UniProt Q9NUX5;Q96AP0 1-634;3-248, |).
In data set [7] the target is T2, POT1;TPP1N-Alexa 647. The source holds these as a separate data set.
In data set [8] the target is T1, POT1. The source holds these as a separate data set.
Data set [9] deals with T3, POT1;TPP1N. The source holds these as a separate data set.
The target of data set [10] is T1, POT1. The source holds these as a separate data set.
Data set [11] addresses T2, POT1;TPP1N-Alexa 647. This is another data set of the same source.

Where two headings read alike, the source gives them in different places.

T2 sequence (Q96AP0 3-248, one chain of several): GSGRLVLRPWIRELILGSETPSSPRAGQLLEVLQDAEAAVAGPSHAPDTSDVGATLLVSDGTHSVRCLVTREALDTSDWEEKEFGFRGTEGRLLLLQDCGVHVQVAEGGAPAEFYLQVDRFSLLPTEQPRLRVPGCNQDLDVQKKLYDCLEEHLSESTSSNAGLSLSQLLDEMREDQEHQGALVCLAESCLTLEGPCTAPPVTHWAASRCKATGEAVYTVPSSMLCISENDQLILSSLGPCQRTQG
T3 sequence (Q96AP0 3-248, one chain of several): as above

B1: G3 (mixed)
DNA 1: TGGCGACGGCAGCGAGGCTTAGGGTTAGGGTTAGGG
DNA 2: GCCTCGCTGCCGTCGCCA
For B1, the binding result in [1] is listed as “binds”.

B2: G2 (mixed)
DNA 1: TGGCGACGGCAGCGAGGCTTAGGGTTAGGG
DNA 2: GCCTCGCTGCCGTCGCCA
Consider B2, for which, in [2], the binding result is “binds”.

B3: OB2 mutant (mixed)
DNA 1: TGGCGACGGCAGCGAGGCTTAGGGTTTT
DNA 2: GCCTCGCTGCCGTCGCCA
Regarding B3, in data set [3], the binding result is listed as “binds”.

B4: G2-mut4 (unlabelled stem strand) (mixed)
DNA 1: TGGCGACGGCAGCGAGGCTTAGGGTTAGGGTTTGGCTTTGGCTTTGGCTTTGGC
DNA 2: GCCTCGCTGCCGTCGCCA
On to B4, for which, in data set [4], the binding result is on record as “binds”.

B5: G4 (24 nt FRET) (mixed)
DNA 1: TGGCGACGGCAGCGAGGCTTAGGGTTAGGGTTAGGGTTAGGG
DNA 2: GCCTCGCTGCCGTCGCCA
Take B5: the binding result in [5] and in data set [6] was “binds” each time.

B6: G2-mut2 (unlabelled stem strand) (mixed)
DNA 1: TGGCGACGGCAGCGAGGCTTAGGGTTAGGGTTTGGCTTTGGC
DNA 2: GCCTCGCTGCCGTCGCCA
With B6, the binding result in [7] is “binds”.

B7: G2-mut2 (FRET with Cy5 stem) (mixed)
DNA 1: TGGCGACGGCAGCGAGGCTTAGGGTTAGGGTTTGGCTTTGGC
DNA 2: GCCTCGCTGCCGTCGCCA
As to B7, the binding result in [8] was “binds”.

B8: G4 (18 nt Cy3) (mixed)
DNA 1: TGGCGACGGCAGCGAGGCTTAGGGTTAGGGTTAGGGTTAGGG
DNA 2: GCCTCGCTGCCGTCGCCA
modifications: internal Cy3 in strand 1 after nt 36
B8: the binding result in [9] and in data set [10] was “binds” each time.

B9: G4 (3'Cy3, unlabelled stem strand) (mixed)
DNA 1: TGGCGACGGCAGCGAGGCTTAGGGTTAGGGTTAGGGTTAGGG
DNA 2: GCCTCGCTGCCGTCGCCA
As to B9, the binding result in data set [11] is listed as “binds”.

B10: G4 (6 nt Cy3) (mixed)
DNA 1: TGGCGACGGCAGCGAGGCTTAGGGTTAGGGTTAGGGTTAGGG
DNA 2: GCCTCGCTGCCGTCGCCA
modifications: internal Cy3 in strand 1 after nt 24
On to B10, for which the binding result in [10] is recorded as “binds”.
